The values that follow come from patent US20060003399A1, “High throughput actin polymerization assay” (Cytokinetics, Inc., priority 2004, published 2006).

“Also recorded” adds a separate entry of the source. Like-named read-outs stand apart in the source and are kept apart here.

In series [1] the target is Arp2/3. The series is described as follows: Activities of WASP/N-WASP proteins (Table 4). The format is biochemical. From the text: The term “variant” or “analogue” generally refers to proteins that are functional equivalents to a native sequence that have similar amino acid sequences and retain, to some extent, one of the activities of the corresponding native protein. Variants/analogues include fragments that retain one or more activities of the corresponding native protein. Examples of WASP and N-WASP activity include, but are not limited to, capacity to: 1) bind Arp2/3 and actin; 2) activate the actin nucleation activity of Arp2/3 (descriptions of assays to detect nucleation activity are provided below); 3) bind an upstream regulator; 4) be regulated by one or more upstream regulators, thereby rendering the WASP or N-WASP protein able to activate the nucleation activity of Arp2/3; and 5) bind downstream regulators initiating signal transduction cascades. Some of the WASP and N-WASP proteins that are provided are able to recapitulate the full activity of WASP or N-WASP, which means that these proteins have all five of the activities just listed. […]
A third class of NPF proteins that can be utilized in some assays include WASP, N-WASP and SCAR proteins that include the WH1 domain but in which the PolyPro region is (e.g., deleted). A fourth class of NPF proteins that can be utilized in some assays are WASP, N-WASP and SCAR deletion mutants in which the PolyPro region is maintained but an N-terminal region (e.g., WH1 domain) is at least partially removed. Some proteins in this class are ones that include the B, CRIB/GBD (WASP and N-WASP), PolyPro and VCA domains, but in which some or all of the WH1 has been removed. One specific example is 98N-WASP, which includes amino acids 98-501 of SEQ ID NO:4. Another specific example is the 105WASP protein, which includes amino acids 105-501 of SEQ ID NO:2 (see FIG. 4B).
As indicated in this table, specific examples of fusion proteins that can be utilized include those that include a segment that encodes full-length WASP or N-WASP, including: Myc-WASP-TAP (SEQ ID NO:14); and Myc-N-WASP-TAP (SEQ ID NO: 16). Examples of fusion proteins that include a WASP or N-WASP deletion mutant domain include: GST-105WASP (SEQ ID NO:18); Myc-105WASP-TAP (SEQ ID NO:20); GST-tev-98N-WASP (SEQ ID NO:22); and Myc-98N-WASP-TAP (SEQ ID NO:24). The TAP tag in these particular fusion proteins has the general structure CBP-tev-ProtA (SEQ ID NO:36). Fusion proteins such as those listed in Table 4 can in some instances be utilized directly, or after one or both of the C- and N-terminal tags are removed. For example, the fusion proteins listed in Table 4 as having a TAP tag can be used once the TAP tag has been cleaved off and/or after the C-terminal tag has been removed.

A short description of series [2]: Storage stability of purified formin proteins at -80 C. The format is physicochemical. As to conditions: storage at −80° C. The method, then:
The formins were purified on either Ni-NTA column (His6 tagged proteins) or Gluthatione-Sepharose (GST tagged proteins). Resins were equilibrated with lysis buffer. Clear crude extracts were loaded onto column, columns were washed with lysis buffer followed by washing buffer (50 mM Tris pH 8.0, 50 mM KCl, 1 mM DTT, 1 mM MgCl, 3% glycerol), and proteins were eluted with either 300 mM imidazole (His6-tagged proteins) or 10 mM glutathione (GS-tagged proteins). Eluted proteins were analyzed by SDS PAGE (4-20%) (Invitrogen, San Diego Calif.), fractions were pooled and protein concentrations were measured by Coomassie Plus (Bradford)(Bio-Rad, Hercules, Calif.). Purified proteins were “drop-frozen” in liquid nitrogen and stored at −80° C.

For series [3], the target named is T1, actin (Gallus gallus, UniProt P68139).
T1 construct: from tissue
The experiment in a line: Formin nucleated actin/pyrene-actin polymerization assay. In kind it is biochemical, chicken. As for the experimental part:
G-Actin: Typically chicken actin was used. G-actin can be purchased from Cytoskeleton, Inc. It can also be purified according to Pardee and Spudich (1982) Methods of Cell Biol. 24:271-89, and subsequently gel filtered as discussed by MacLean-Fletcher and Pollard (1980) Biochem Biophys. Res. Commun. 96:18-27.
Acrylodan-Actin and Pyrene-Actin: Typically chicken actin was utilized. Pyrene labeled actin was prepared according to methods described in Kouyama and Mihashi (1981) Eur. J. Biochem. 114:33-38 or as described by Cooper et al. (1983) J. Muscle Res. Cell Motility 4:253-62. Alternatively, it can be purchased from Cytoskeleton, Inc. Acrylodan-labeled actin was prepared by modification of the pyrene-labeling protocol described in Cooper et al. (1983) J. Muscle Res. Cell Motility 4:253-62.
G-actin and pyrene-actin were prepared as described in Example 7.
Activity of purified formins from the constructs described above in Example 12 was assessed in an actin/pyrene-actin polymerization assay. Polymerization was carried out in G-buffer and was initiated by addition of 10× polymerization mix.
Gel filtered actin and pyrene-actin were diluted in G-buffer to the indicated final concentrations. Either purified C. albicans formin domains or formin domain-enriched fractions were added together with polymerization mix to start actin polymerization. Formin nucleated actin polymerization was monitored on a Gemini plate reader (excitation at 365 nm and emission at 407 nm). Protein components in the actin polymerization assay are provided below.

B1: WASP VCA Domain: VCA domain of WASP (SEQ ID NO:6) (protein, listed as Homo sapiens)
chain: GGRGALLDQIRQGIQLNKTPGAPESSALQPPPQSSEGLVGALMHVMQKRSRAIHSSDEGEDQAGDEDEDDEWDD
modifications: (1)..(74) WASP VCA Domain
Take B1: in series [1], the “Activate Arp2/3?” value is on record as “Yes” and the “Regulated By Which Upstream Regulators?” value is “None”.

B2: His6 tagged C. albicans FH1-FH2 domain: C. albicans FOR1 M972 to K1598 (FH1 and FH2 domains), C-terminally tagged with His6 (protein)
chain: MDPKFLQELSLKVGKAEPIQDANNKNQFGGPLSSSPEDVSQKHKTSGDSSDKDKVLSSPISSNDIKSPETGNSTTSSAAPPPPPPPPPPPPPPLPPILGGNNSSAAPPPPPPPPPPPAFLNGSGSVIPPAPPLPPPSSGRSSRSVPSTVTKSSGSAFDKIPRPKKKLKQLHWEKIDHSQVGNSFWNDPNTHTLVDDLMSKGIFDEIELIFAAKEAKKLATKKKEDLDKVTFLARDISQQFSINLHAFNSFSDEEFVLKVLRCDKDVLTNPAVLDFFGKEDIVEITNTLARNFEPYSTDYKTEEITKPEKDPNELQRPDRIYLELMYNLQHYWKSRTRALNVVVNYDKDVYEYVKKLRLIDEAVDSIKNSKHLKGVFEIILAVGNYMNDSAKQAHGFKLSSLQRLSFMKDEKNSMTFLHYVEKVIRTQYPEFLEFINELSCCNEITKFSIENINNDCKEYARAIKNVQSSIDIGNLSDVSKFHPSDRVLKAVLPALPRAKRKAELLLDQANYTMKEFDDLMKYFGEDPTDQFVKNSFISKFTDFMKDFKRVQAENIKREEELRVYEQRKKLLEKPKSSNNGDSNASDQDGESNEGDGGVMDSLLQRLKAAAPTKGESASARKKALMRK
modifications: left off: small tags and cut ends
Turning to B2, in series [2], the “time stable at −80° C.” value was “several”. Also, the “formin concentration used to observe saturation” value in series [3] fell in the range of 300 to 500 nM. Further, in series [3] (actin […], pyrene actin 0.5 μM), the “actin nucleation activity of the formin (in words)” value is “active, i.e., nucleates actin polymerization”.

B3: GST tagged C. albicans FH1-FH2 domain: C. albicans FOR1 M972 to K1598 (FH1 and FH2 domains), N-terminally tagged with GST-TEV (protein)
chain: B2 chain
modifications: left off: a dimerising Fc or GST
notes: C. albicans FOR1 M972 to K1598 (FH1 and FH2 domains), N-terminally tagged with GST-TEV
With B3, the “time stable at −80° C.” value in series [2] was “more than 6 months”. For the same molecule, the “biochemical properties compared with the other formin constructs (in words)” value in series [3] is “best biochemical properties in terms of solubility, stability and activity”. Besides, in series [3] (100 nM formin), the lag phase entry is “less than 100 s” and the “time to reach saturation phase” value came out at 400 s. For the same molecule, the “activity relative to the formin purified in the single step purification” value in series [3] (after further purification on SP Sepharose) was “approximately 3 fold”.

B4: 98 N-WASP: amino acids 98-501 of SEQ ID NO:4 (protein, listed as Homo sapiens)
chain: FVYNSPRGYFHTFAGDTCQVALNFANEEEAKKFRKAVTDLLGRRQRKSEKRRDPPNGPNLPMATVDIKNPEITTNRFYGPQVNNISHTKEKKKGKAKKKRLTKADIGTPSNFQHIGHVGWDPNTGFDLNNLDPELKNLFDMCGISEAQLKDRETSKVIYDFIEKTGGVEAVKNELRRQAPPPPPPSRGGPPPPPPPPHNSGPPPPPARGRGAPPPPPSRAPTAAPPPPPPSRPSVAVPPPPPNRMYPPPPPALPSSAPSGPPPPPPSVLGVGPVAPPPPPPPPPPPGPPPPPGLPSDGDHQVPTTAGNKAALLDQIREGAQLKKVEQNSRPVSCSGRDALLDQIRQGIQLKSVADGQESTPPTPAPTSGIVGALMEVMQKRSKAIHSSDEDEDEDDEEDFEDDD
modifications: (1)..(505) FL-N-WASP
Regarding B4, the entries for the “Activate Arp2/3?” value in series [1] and in series [1] (listed as 98N-WASP) were “Yes” and “activate actin nucleation by Arp2/3”, respectively. Also, the “Regulated By Which Upstream Regulators?” value was “Cdc42, PIP2, Nck and Rac1” in series [1]; “regulated by Cdc42, PIP2, Nck1, and Rc1” in series [1] (listed as 98N-WASP).

B5: 105WASP: amino acids 105-501 of SEQ ID NO:2; WASP lacking the WH1 domain (protein, listed as Homo sapiens)
chain: LVYSTPTPFFHTFAGDDCQAGLNFADEDEAQAFRALVQEKIQKRNQRQSGDRRQLPPPPTPANEERRGGLPPLPLHPGGDQGGPPVGPLSLGLATVDIQNPDITSSRYRGLPAPGPSPADKKRSGKKKISKADIGAPSGFKHVSHVGWDPQNGFDVNNLDPDLRSLFSRAGISEAQLTDAETSKLIYDFIEDQGGLEAVRQEMRRQEPLPPPPPPSRGGNQLPRPPIVGGNKGRSGPLPPVPLGIAPPPPTPRGPPPPGRGGPPPPPPPATGRSGPLPPPPPGAGGPPMPPPPPPPPPPPSSGNGPAPPPLPPALVPAGGLAPGGGRGALLDQIRQGIQLNKTPGAPESSALQPPPQSSEGLVGALMHVMQKRSRAIHSSDEGEDQAGDEDEDDEWD
modifications: (1)..(502) FL-WASP
As for B5, in series [1], the “Activate Arp2/3?” value is “activate actin nucleation by Arp2/3 and Yes”; the “Regulated By Which Upstream Regulators?” value is “regulated by Cdc42, PIP2, Nck1, and Rc1; also recorded: Cdc42, PIP2, Nck and Rac1”.

B6: GST tagged C. albicans FH2 domain: C. albicans FOR1 A1127 to K1598 (FH2 domain only), N-terminally tagged with GST-TEV (protein)
chain: AFDKIPRPKKKLKQLHWEKIDHSQVGNSFWNDPNTHTLVDDLMSKGIFDEIELIFAAKEAKKLATKKKEDLDKVTFLARDISQQFSINLHAFNSFSDEEFVLKVLRCDKDVLTNPAVLDFFGKEDIVEITNTLARNFEPYSTDYKTEEITKPEKDPNELQRPDRIYLELMYNLQHYWKSRTRALNVVVNYDKDVYEYVKKLRLIDEAVDSIKNSKHLKGVFEIILAVGNYMNDSAKQAHGFKLSSLQRLSFMKDEKNSMTFLHYVEKVIRTQYPEFLEFINELSCCNEITKFSIENINNDCKEYARAIKNVQSSIDIGNLSDVSKFHPSDRVLKAVLPALPRAKRKAELLLDQANYTMKEFDDLMKYFGEDPTDQFVKNSFISKFTDFMKDFKRVQAENIKREEELRVYEQRKKLLEKPKSSNNGDSNASDQDGESNEGDGGVMDSLLQRLKAAAPTKGESASARKKALMRK
modifications: left off: a dimerising Fc or GST
notes: C. albicans FOR1 A1127 to K1598 (FH2 domain only), N-terminally tagged with GST-TEV
As to B6, the “time stable at −80° C.” value in series [2] was “several”.
